From patent publication US11497796B2, “Agents directed against a cis RGMa/neogenin interaction or lipid rafts and use of the same in methods of treatment” (UNIVERSITY HEALTH NETWORK, priority 2013, dated 2022)
Each block holds one molecule with its values, some of them ahead of it. No end group written: not given here.

Legend:
[1] = molecular target: T1, 4Ig-domain of Neogenin (Gallus gallus, UniProt Q90610); assay: ELISA / AP binding assay of RGMa peptides to Neogenin domains; conditions: AP-tagged fragments 1.0 μg/mL on coated His-tagged 4Ig
T1 construct: made in house
T1 sequence (Q90610 1-383): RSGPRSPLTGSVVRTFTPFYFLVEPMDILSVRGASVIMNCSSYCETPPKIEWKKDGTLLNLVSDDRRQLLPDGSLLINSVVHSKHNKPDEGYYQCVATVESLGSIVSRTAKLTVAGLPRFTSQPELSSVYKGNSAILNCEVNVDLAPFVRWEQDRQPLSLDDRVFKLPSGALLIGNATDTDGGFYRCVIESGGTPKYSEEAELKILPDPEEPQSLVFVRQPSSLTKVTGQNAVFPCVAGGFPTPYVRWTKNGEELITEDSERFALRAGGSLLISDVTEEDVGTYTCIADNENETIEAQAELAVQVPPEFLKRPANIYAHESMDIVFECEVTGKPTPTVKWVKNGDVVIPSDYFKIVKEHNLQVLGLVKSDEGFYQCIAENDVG
Description: Specifically, the 4Ig-domain and 6FNIII-domain of Neogenin were each fused to alkaline phosphatase (AP). The 4Ig-domain and 6FNIII-domain of Neogenin were found in the extracellular portion of Neogenin. Accession No. AAC59662 (SEQ ID NO:1) was the amino acid sequence of Neogenin. The 4Ig-domain was amino acids 1 to 383 of Accession No. AAC59662 (SEQ ID NO:1). The 6FNIII-domain was amino acids 429 to 1036 of Accession No. AAC59662 (SEQ ID NO:1).
The binding of these fusions to various RGMa peptides were analyzed in an ELISA assay (FIG. 2A).
To determine if distinct N-terminal regions of RGMa bound the 4Ig- and 6FNIII-domains of Neogenin, peptides were generated that spanned the N-terminal region of RGMa. The amino acid sequence of RGMa was Accession No. NP_989868.1 (SEQ ID NO:6). These peptides were a peptide spanning amino acids 28-73 of RGMa (also referred to herein as “N-Raft”) and a peptide spanning amino acids 77-113 of RGMa (also referred to herein as “N-inh”). […] In a complementary experiment, in which the N-Raft and N-inh peptides of RGMa were fused with AP instead of the 4Ig- and 6FNIII-domains of Neogenin, N-Raft bound to the 4Ig-domain and not the 6FNIII-domain while N-inh bound to the 6FNIII-domain and not the 4Ig-domain (FIG. 9). Additionally, N-inh and N-Raft coated beads pulled down 6FNIII-domain and 4Ig-domain, respectively, which was consistent with the ELISA results described above (FIG. 2B).
The assay was conducted in a 96-well microtiter plate (Corning Incorporated). The wells were coated with 100 μl (10 μg/mL) of Poly-L-Lysine at 4° C. overnight. Wells were then washed three times with 100 μl of PB ST (+0.02% Tween).
50 μl (2.5 μg/mL) of His-tagged: Full-length Neogenin; the 4Ig-domain of Neogenin; and 6FNIII-domain of Neogenin were coated onto each well for 1 hour at 37° C. Following three washes of 100 μl PBST, each well was then blocked with 300 μl of 3% BSA in PBST for 1 hour at 37° C.
50 μl (1.0 μg/mL) AP-tagged: N-RGMa (28-73); N-RGMa (28-54); N-RGMa (40-62); N-RGMa (54-73); N-RGMa (54-62) in 1% BSA+PBST was then added to each well and incubated at 37° C. for 1 hour. Each well was washed thoroughly three times with 100 μl PBST followed by subsequent equilibration of each well with Alkaline Phosphatase (AP) developing buffer (100 mM NaHCO3, 1 mM MgCl2). The reaction was developed using AP developing buffer supplemented with, p-nitrophenyl phosphate (pNPP) (Sigma-Aldrich) and allowed to develop until color development. The reaction was stopped with the addition of 50 μl (0.1M) NaOH. The absorbance of each reaction was measured using a microplate autoreader (BIO-TEK Instruments Inc.) at 405 nanometers (nm) wavelength.

[2] = system: temporal retinal explants (axonal outgrowth); assay: Retinal explants outgrowth assay; type: cell-based, chick
Procedure: Poly-L-Lysine (SIGMA; 10 μg/ml) coated glass coverslips were treated with Laminin (Invitrogen; 10 μg/ml) and RGMa proteins (5 μg/ml) and incubated for 3 hours at room temperature. Temporal retinal explants were cultured on protein-coated surfaces for 18 hours. To disrupt the lipid rafts, explants were pretreated with 10 mM methyl-β-cyclodextrin (MβCD) for 12 minutes or 2 U/ml cholesterol oxidase (CO) for 1 hour at 37° C. Explants were then fixed with 4% paraformaldehyde (PFA) and stained with Alexa488-phalloidin. Fiber length was quantified using Image Pro 5.0. For immunolocalization, explants were treated with Cholera Toxin B-FITC (C1655; Sigma; 10 mg/mL) and patched, fixed and stained with Neogenin antibody. Retinal ganglion cells (RGCs) were electroporated with RGMa-His and cultured for 18 hours. The cells were fixed and stained with Neogenin and His-tag antibodies.
Retinal explants outgrowth assay. Poly-L-Lysine (PLL; SIGMA; 10 μg/ml) coated glass coverslips were treated with Laminin (10 μg/ml; Invitrogen) and RGMa proteins (5 μg) and incubated for 3 hrs at room temperature. PLL treated coverslips were coated with myelin overnight (6 μg/cm2), followed by coating with Laminin. Temporal retinal explants were cultured on either myelin or protein-coated surfaces in DMEM F-12 media (2% chick serum, 10% FBS) for 18 h. To disrupt rafts, explants were pre-treated with 10 mM MβCD for 12 min or 2 U/ml CO for 1 h at 37° C., washed, and cultured on protein coated coverslips. Explants were then fixed with 4% PFA and stained with Alexa488-fluor-phalloidin (1:50; Molecular Probes). Fiber length was quantified using Image Pro 5.0.
Statistical analysis of retinal outgrowth assays was performed using Student's two-tail t-test using Excel (Microsoft). Results were expressed as the mean±SEM (n=at least 3 independent experiments; 2 duplicates per independent experiment, >10 explants per duplicate).

[3] = system: retinal ganglion cells (RGCs); assay: Retinal organotypic cultures (whole mounts), propidium iodide cell death; type: cell-based; conditions: perturbing lipid rafts
Procedure: (A) HEK293 cells that stably express RGMa (FIG. 11) were transfected with empty plasmid (Ctrl) or Neogenin (Neo). Neogenin induced cell death (arrows) when compared to control. (B) Quantification of cell death in Neogenin-transfected cells that were incubated in BSA (Neo+Ctrl), 4Ig (1 μg/ml), N-Raft (1 μg/ml), Noggin (100 nM), or MβCD (10 mM). […] Data were average±SEM (n=3 independent experiments), *p<0.0001. (C) Representative images and (D) Quantification of cell death in chick E5 tecta electroporated with GFP- and a Neogenin-expression plasmid and then injected with N-RGMa50-99 (Ctrl; 1 μg/ml), 4Ig (1 μg/ml), or N-Raft (1 μg/ml) and subjected to TUNEL assay. […] Data were an average±SEM from 3 different tecta/conditions (*p<0.001). Bar, 100 μm. (E) Representative images and (F) Quantification of retinal whole mounts incubated for 4 days with control peptide (1 μg/ml), 4Ig (1 μg/ml), N-Raft (1 μg/ml), or MβCD (10 mM) and dead cells were stained with Propidium Iodide (PI). Images from 9 whole mounts per condition from 3 independent experiments were taken at the same intensities and the fluorescence measured using ImageJ. […] Bar, 500 μm. (G) Fluorescence micrographs of flat-mounted retinas depicting Fluorogold-labeled retinal ganglion cells (RGCs) in injured retinas at 14 days following axotomy. Control retinas (Ctrl) had few surviving RGCs. 4Ig, N-raft or MβCD increased cell survival. Bar, 200 μm. (H) Representations of the retinal areas selected in our analyses. […] Data were average±SEM (n=6 eyes), *p<0.01.
For this study, retinal organotypic cultures were used, in which axotomy of retinal ganglion cells (RGCs) deprived the cells of tropic factors and induced apoptosis. Cell death was detected using propidium iodide (PI) and all images were taken at the same intensity with the RGC-layer in focus. Cell death was gauged by measuring the relative PI intensity of whole mounts.

[4] = system: Neogenin association with lipid rafts; assay: Lipid raft fractionation of injected chick brain/tecta; type: in vivo; conditions: injected into chick brain/optic tectum one day before fractionation
Procedure: Injected chick E8 tecta (4Ig, 2 mg/mL; N-raft, 1 mg/mL; methyl-β-cyclodextrin (10 mM)) or transfected cells (Neogenin and RGMa) were collected 24 hours later, lysed and placed at the bottom of a sucrose density gradient (0.9-0.8-0.75-0.7-0.6-0.5-0.4-0.2 M) and centrifuged at 38,000 rpm for 16 hours in SW 60 rotor (Beckman Instruments Inc.).
Proteins (4Ig, 2 mg/ml; N-Raft, 1 mg/mL; RGMaΔ, 5 mg/ml; methyl-β-cyclodextrin (10 mM)) were injected in chick E8 optic tectum and tecta were collected 24 hrs later. HEK cells were transfected with Neogenin and different RGMa constructs and collected 48 hrs later. For treatment with RGMaΔ, Neogenin transfected cells were treated with RGMaΔ (2 mg/ml) and BMP-2 (100 nM) and further incubated for 1 hr at 37° C. Tecta (3 tecta for each set of experiment) and/or cells were solubilized in chilled buffer (25 mM Tris-HCl, pH 7.4, 150 mM NaCl, 5 mM EDTA and protease inhibitor cocktail) and passed through G25 and G30 needles, respectively, and centrifuged at 800 g for 10 min at 4° C. Cold Triton X-100 was added to the post nuclear supernatant to a final concentration of 1% and incubated on ice for 1 hour. 2× volume of 2M sucrose was added and sample placed at the bottom of a sucrose density gradient (0.9-0.8-0.75-0.7-0.6-0.5-0.4-0.2 M) and centrifuged at 38,000 rpm for 16 hours in SW 60 rotor (Beckman Instruments Inc.). 400 μl fractions were collected from top (top numbered 1 and next eight fractions numbered consequently) and stored at −80° C.
As such, it was examined if overexpressing recombinant 4Ig and N-Raft competed with the endogenous 4Ig and N-Raft domains to displace Neogenin from the lipid raft fractions to the non-lipid raft fractions. Specifically, N-Raft, 4Ig-domain, or a control peptide, which was amino acid residues 50-99 of RGMa (also referred to herein as “N-RGMa^50-99”), was injected into the optic tectum at E8. The tecta were collected a day later for fractionation-analyses.

Molecule: N-RGMa (40-62aa): amino acids 40-62 of RGMa (SEQ ID NO:4), AP-tagged (WAATSGSHHLGAEETPEFCTALR; also: AP-tagged)
- binding to the 4Ig-domain of Neogenin [1]: bound specifically

Molecule: cholesterol oxidase [CO]
- axonal outgrowth on RGMa proteins after lipid raft disruption ([2]; 10 mM MβCD or 2 U/ml of CO): restored to control values
- enhancement of cell survival vs. control [3]: about 50%

B3: Noggin: BMP-chelator, Accession No. AAA83259 (SEQ ID NO:5) (protein, listed as Homo sapiens)
chain: MERCPSLGVTLYALVVVLGLRATPAGGQHYLHIRPAPSDNLPLVDLIEHPDPIFDPKEKDLNETLLRSLLGGHYDPGFMATSPPEDRPGGGGGAAGGAEDLAELDQLLRQRPSGAMPSEIKGLEFSEGLAQGKKQRLSKKLRRKLQMWLWSQTFCPVLYAWNDLGSRFWPRYVKVGSCFSKRSCSVPEGMVCKPSKSVHLTVLRWRCQRRGGQRCGWIPIQYPIISECKCSC
modifications: Noggin - Accession No. AAA83259
- outgrowth in retinal explants (E8) exposed to N-RGMa, C-RGMa or RGMaΔ ([2]; in presence of Noggin): restored outgrowth
- axonal outgrowth, agent alone ([2]; no RGMa protein): unaffected
- Neogenin localization in membrane fractions [4]: not present in the lipid rafts

B4: C-RGMa: C-terminal RGMa isoform of the CNS (protein)
chain: PHLRTFTDTFQTCKVQGAWPLIDNNYLNVQVTNTPVLPGSSATATSKLTIIFKSFQECVEQKVYQAEMDELPAAFADGSKNGGDKHGANSLKITEKVSGQHIEIQAKYIGTTIVVRQVGRYLTFAVRMPEEVVNAVEDRDSQGLYLCLRGCPLNQQIDFQTFRLAQAAEGRARRKGPSLPAPPEAFTYESATAKCREKLPVEDLYFQSCVFDLLTTGDVNFMLAAYYAFEDVKMLHSNKDKLHLYERTRALAPGN
- effect on axonal outgrowth when provided as growth substrate (in trans) ([2]; protein as substrate): blocked axon growth

Continued, values first:

- binding to the 4Ig-domain of Neogenin [1]: bound specifically
Molecule: N-RGMa (54-73aa): amino acids 54 to 73 of RGMa (SEQ ID NO:3), AP-tagged (TPEFCTALRAYAHCTRRTAR; cysteine pairing not given here; also: AP-tagged)

- binding to the 4Ig-domain of Neogenin [1]: demonstrated binding
B1: N-RGMc (SEQ ID NO:9): N-RGMc from mouse (protein)
chain: MGQSPSPRSPHGSPPTLSTLTLLLLLCGQAHSQCKILRCNAEYVSSTLSLRGGGSPDTPRGGGRGGLASGGLCRALRSYALCTRRTARTCRGDLAFHSAVHGIEDLMIQHNCSRQGPTAPPPARGPALPGAGPAPLTPDPCDYEARFSRLHGRAPGFLHCASFGD
modifications: Mouse N-RGMc
notes: N-RGMc from mouse

- binding to the 4Ig-domain of Neogenin [1]: demonstrated binding
B2: N-RGMa (SEQ ID NO:10): N-RGMa from mouse (protein)
chain: MQPPRERLVVTGRAGWMGMGRGAGRSALGLWPTLAFLLCSFPAAISPCKILKCNSEFWSATSSGSHAPASDDVPEFCAALRTYALCTRRTARTCRGDLAYHSAVHGIEDLMSQHNCSKDGPTSQPRVRTLPPAGDSQERSDSPEICHYEKSFHKHSAAPNYT
modifications: Mouse N-RGMa
notes: N-RGMa from mouse
